This note sets out measurements from patent publication US20050010967A1, “SK3-1B GFP transgenic mouse model for spinocerebellar ataxia and hyperexcitable behavior” (The Regents of the University of California, priority 2003, published 2005).

In test [1] the target is T1, SK2 channels in Jurkat T lymphocytes (Homo sapiens, UniProt Q9H2S1).
T1 construct: The native SK2 current was suppressed by SK3-1B; endogenous in cells; host or cells: Jurkat T lymphocytes (human)
In words: Whole cell patch clamp of endogenous SK2 current in Jurkat T lymphocytes. The format is cell-based. The text has this: (§1) Electrophysiology. PC12 and Jurkat T cells were studied in the whole cell configuration of the patch clamp technique with a holding potential of −80 mV. We determined SK and Kv current amplitude in untransfected cells or in cells transfected with SK3-1B-GFP, SK3-1BIRES-GFP or control constructs (GFP vector alone, GFP-Kv1.7). […] Brightly GFP-positive cells were identified under a fluorescence microscope to allow the analysis of cells expressing high levels of the channel constructs for electrophysiological studies. Control constructs were expressed at equivalently high levels as assessed by the intensity of the GFP signal.
(§2) To activate SK channels, the pipette solution contained (in mM): 145 K^+ aspartate, 2 MgCl2, 10 HEPES, 10 K2EGTA, and 8.5 CaCl2 (1 μM free Ca^2+), pH 7.2, 290-310 mOsm. […] The amplitude of the KV current was measured as the maximum current at 30 mV in 160 Na^+ aspartate. […]
(§3) SK3-1B suppresses other SK channels in a dominant-inhibitory manner. The inventors next determined whether SK3-1B could suppress SK2 channels. […] Using the electrophysiological protocol described above for PC12 cells, SK2 and Kv1.3 currents were measured in Jurkat cells. The inward SK2 current, detected at potentials more negative than −40 mV, was blocked by Lei-Dab (FIG. 5a), a highly specific SK2 peptide inhibitor. […]
(Patch clamp records ionic current or voltage across a cell membrane.)

In test [2] the target is T2, Kv1.3 channels in Jurkat T lymphocytes (Homo sapiens, UniProt P22001).
T2 construct: they express SK2 channels and no other SK channels, along with voltage-gated Kv1.3 channels; endogenous in cells; host or cells: Jurkat T lymphocytes (human)
In words: Whole cell patch clamp of endogenous Kv1.3 current in Jurkat T lymphocytes. The format is cell-based.
Description: as §1, §2, §3

For test [3], the target named is T3, endogenous SK3 current in PC12 cells (Rattus norvegicus, UniProt P70605).
T3 construct: these cells natively express SK3 currents; endogenous in cells; host or cells: PC12 (rat pheochromocytoma)
In words: Whole cell patch clamp of endogenous SK (SK3) current in PC12 cells. The following applies: transfected PC12 cells, 48 h post-transfection; untransfected 6.24±1.57 nS. The format is cell-based.
Description: as §1, §2

For test [4], the system named is endogenous Kv current in PC12 cells. In words: Whole cell patch clamp of endogenous Kv current in PC12 cells. Format: cell-based, rat. The following applies: transfected PC12 cells; 160 mM Na+ aspartate external; untransfected 707.94±147.7 pA.
Description: as §1, §2

The subject of test [5] is native SK3 in PC12 cells. In words: Immunolabeling and confocal microscopy of native SK3 localization in PC12 cells. Particulars: transfected PC12 cells; untransfected 1.72±0.08. The format is cell-based, rat. On the procedure: Immunostaining. Following washing with Dulbecco's phosphate buffered saline (DPBS), cells were fixed with 4% paraformaldehyde for 20 min and washed 2× with DPBS. Permeabilization and blocking was done with 0.2% Triton-X-100 in 10% normal goat serum, followed by a wash with DPBS. Permeabilized cells were incubated with rabbit anti-SK3 antibody (Alomone Labs, Jerusalem, Israel) in a carrier solution containing 1% normal goat serum and 0.2 % sodium azide for 4 h at 4° C. Cells were subsequently washed and incubated with 1 μg/ml Alexa-Fluor 594 (referred to as Alexa-red)-conjugated goat-anti-rabbit-IgG (Molecular Probes) for 1 h at room temperature. […] As an additional test of antibody specificity, the anti-SK3 antibody was shown not to react with SK3-1B protein, an isoform that lacks the SK3 N-terminal epitope detected by the antibody (data not shown). […]
Confocal microscopy. […] The Scion image 4.0.2 program (Scion Corporation, Frederick, Md., USA) was used to determine the pixel intensity of fluorescence that tagged presumptive intracellular and membrane SK3 protein. Three axes were drawn through each stained cell and pixel intensities were measured along each of these axes. […] The average ratio of presumptive membrane to intracellular fluorescence was estimated from these intensity histograms. The expression level of each transfected construct was quantitated as mean pixel intensity. […]

Setting [6] is: 100 nM Lei-Dab, untransfected Jurkat T lymphocytes.
[7] abbreviates: transfected Jurkat T lymphocytes, n=4.

T3 sequence (P70605 whole entry): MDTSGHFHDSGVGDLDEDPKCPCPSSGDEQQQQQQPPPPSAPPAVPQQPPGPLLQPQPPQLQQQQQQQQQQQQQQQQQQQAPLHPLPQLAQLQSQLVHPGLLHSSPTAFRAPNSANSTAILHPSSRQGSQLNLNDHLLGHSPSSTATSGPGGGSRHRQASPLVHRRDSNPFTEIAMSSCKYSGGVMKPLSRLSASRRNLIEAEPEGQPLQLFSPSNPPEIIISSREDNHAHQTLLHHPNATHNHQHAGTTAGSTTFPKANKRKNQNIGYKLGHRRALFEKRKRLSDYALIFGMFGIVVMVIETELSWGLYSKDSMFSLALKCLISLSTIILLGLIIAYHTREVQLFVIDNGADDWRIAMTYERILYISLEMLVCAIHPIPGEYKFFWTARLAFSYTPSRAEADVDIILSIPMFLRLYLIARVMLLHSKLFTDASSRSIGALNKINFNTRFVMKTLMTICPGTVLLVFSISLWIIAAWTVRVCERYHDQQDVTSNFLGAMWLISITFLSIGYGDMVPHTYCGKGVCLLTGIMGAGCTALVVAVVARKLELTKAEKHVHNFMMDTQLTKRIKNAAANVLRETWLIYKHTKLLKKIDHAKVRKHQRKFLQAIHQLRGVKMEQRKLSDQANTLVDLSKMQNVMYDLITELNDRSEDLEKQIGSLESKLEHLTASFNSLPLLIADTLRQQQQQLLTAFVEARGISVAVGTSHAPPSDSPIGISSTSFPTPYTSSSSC
T1 sequence (Q9H2S1 whole entry): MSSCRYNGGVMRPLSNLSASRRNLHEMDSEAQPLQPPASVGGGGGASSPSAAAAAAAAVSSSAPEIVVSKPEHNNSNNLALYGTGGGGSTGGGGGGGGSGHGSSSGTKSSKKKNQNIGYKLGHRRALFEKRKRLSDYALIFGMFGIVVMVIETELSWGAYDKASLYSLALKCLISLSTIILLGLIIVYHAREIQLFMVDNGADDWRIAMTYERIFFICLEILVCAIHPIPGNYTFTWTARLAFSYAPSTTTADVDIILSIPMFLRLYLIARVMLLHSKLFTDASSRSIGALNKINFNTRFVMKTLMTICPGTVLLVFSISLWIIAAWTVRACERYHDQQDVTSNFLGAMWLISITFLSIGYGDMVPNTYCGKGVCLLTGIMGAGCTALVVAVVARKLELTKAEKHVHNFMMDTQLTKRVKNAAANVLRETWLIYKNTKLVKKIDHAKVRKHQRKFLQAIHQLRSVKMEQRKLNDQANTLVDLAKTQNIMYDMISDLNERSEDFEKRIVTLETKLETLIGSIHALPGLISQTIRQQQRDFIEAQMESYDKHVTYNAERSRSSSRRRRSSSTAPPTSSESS
T2 sequence (P22001 whole entry): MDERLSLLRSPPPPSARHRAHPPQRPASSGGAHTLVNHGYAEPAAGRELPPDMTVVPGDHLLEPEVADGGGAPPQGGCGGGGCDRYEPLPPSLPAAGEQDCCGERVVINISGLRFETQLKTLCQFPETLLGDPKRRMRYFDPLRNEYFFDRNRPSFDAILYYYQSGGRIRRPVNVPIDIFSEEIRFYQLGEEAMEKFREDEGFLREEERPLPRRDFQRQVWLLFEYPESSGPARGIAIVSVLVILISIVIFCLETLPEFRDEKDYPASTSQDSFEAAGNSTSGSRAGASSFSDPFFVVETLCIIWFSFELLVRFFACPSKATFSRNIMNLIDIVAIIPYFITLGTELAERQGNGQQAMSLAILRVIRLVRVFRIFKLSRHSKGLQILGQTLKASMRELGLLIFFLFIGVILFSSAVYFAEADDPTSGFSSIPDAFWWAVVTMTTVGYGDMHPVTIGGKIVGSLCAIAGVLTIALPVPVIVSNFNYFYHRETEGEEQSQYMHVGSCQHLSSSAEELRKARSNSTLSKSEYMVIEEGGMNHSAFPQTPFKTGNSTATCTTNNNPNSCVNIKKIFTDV
Sequence of native SK3 in PC12 cells (P70605 whole entry): as the sequence (P70605 whole entry) above

For the molecule Lei-Dab [reference compound], the “Effect on inward SK2 current” value in test [1] (setting [6]) was “blocked”. Besides, the “Effect on Kv1.3 current” value in test [2] (setting [6]) was “unaffected”.

B1: SK3-1B-GFP: SK3-1B coding region inserted in-frame upstream to GFP in pEGFP-N1 expression vector; GFP-tagged truncated SK3 splice variant (protein)
chain: MFSLALKCLISLSTIILLGLIIAYHTREVQLFVIDNGADDWRIAMTYERILYISLEMLVCAIHPIPGEYKFFWTARLAFSYTPSRAEADVDIILSIPMFLRLYLIARVMLLHSKLFTDASSRSIGALNKINFNTRFVMKTLMTICPGTVLLVFSISLWIIAAWTVRVCERYHDQQDVTSNFLGAMWLISITFLSIGYGDMVPHTYCGKGVCLLTGIMGAGCTALVVAVVARKLELTKAEKHVHNFMMDTQLTKRIKNAAANVLRETWLIYKHTKLLKKIDHAKVRKHQRKFLQAIHQLRSVKMEQRKLSDQANTLVDLSKMQNVMYDLITELNDRSEDLEKQIGSLESKLEHLTASFNSLPLLIADTLRQQQQQLLSAIIEARGVSVAVGTTHTPISDSPIGVSSTSFPTPYTSSSSC
modifications: left off: large carriers
notes: SK3-1B coding region inserted in-frame upstream to GFP in pEGFP-N1 expression vector; GFP-tagged truncated SK3 splice variant
B1: the “SK currents (mean±SEM), slope conductance at −80 mV” value in test [3] was 0.68±0.08 nS. Also, the “Kv currents (mean±SEM), maximum current at 30 mV” value in test [4] was 475.96±61.78 pA. Also, the “SK2 current in transfected Jurkat T lymphocytes” value in test [1] (setting [7]) was “no SK2 current is observed”. Also, the “Kv1.3 current in transfected Jurkat T lymphocytes” value in test [2] (setting [7]) is recorded as “resembles that in untransfected cells”. In test [5], the “Ratio of presumptive membrane to intracellular SK3 fluorescence (mean±SEM)” value was determined as 1.1±0.09.

B2: SK3-1B-IRES-GFP: Untagged SK3-1B in bicistronic pIRES2-EGFP vector with GFP driven by an internal ribosome entry site (protein)
chain: MFSLALKCLISLSTIILLGLIIAYHTREVQLFVIDNGADDWRIAMTYERILYISLEMLVCAIHPIPGEYKFFWTARLAFSYTPSRAEADVDIILSIPMFLRLYLIARVMLLHSKLFTDASSRSIGALNKINFNTRFVMKTLMTICPGTVLLVFSISLWIIAAWTVRVCERYHDQQDVTSNFLGAMWLISITFLSIGYGDMVPHTYCGKGVCLLTGIMGAGCTALVVAVVARKLELTKAEKHVHNFMMDTQLTKRIKNAAANVLRETWLIYKHTKLLKKIDHAKVRKHQRKFLQAIHQLRSVKMEQRKLSDQANTLVDLSKMQNVMYDLITELNDRSEDLEKQIGSLESKLEHLTASFNSLPLLIADTLRQQQQQLLSAIIEARGVSVAVGTTHTPISDSPIGVSSTSFPTPYTSSSSC
On to B2, for which the “SK currents (mean±SEM), slope conductance at −80 mV” value in test [3] was 1.1±0.03 nS. The “Kv currents (mean±SEM), maximum current at 30 mV” value in test [4] was 560.37±75.9 pA.
